Assay results published in US7576177B2, “Hsp peptides and analogs for modulation of immune responses via antigen presenting cells” (Andromeda Biotech Ltd., priority 2002, dated 2009).

Tests used:
[1] = tested on: BALB/c DO.11.10 bone marrow cells cultured for dendritic cells, cocultured with DO.11.10 T cells; assay: Education of mouse dendritic cells and stimulation of T-cells, cytokine content of supernatant; format: cell-based; settings: 0.3 nM Ova peptide
Procedure: Whelan et al. (J. Immunol 164, 6453-6460, 2000) addressed the problem in mice by an experiment in which mouse bone marrow cells were grown for 6 days in culture with GM-CSF to give immature dendritic cells. These dendritic cells were then incubated overnight with LPS (known to drive cells to DC1) or with a nematode antigen. The reason for the choice of nematode antigen was that injection of this antigen in vivo gives rise to a Th2 response in animals. After this so-called “education” of the dendritic cells, they were washed and subsequently incubated with naive T cells in the presence of antigenic stimulus. The experiment was possible because of the use of transgenic mice in which all the T cells respond to the same peptide (OVA323-339) which absolves the system from any question of bias of the T cell response at the level of the T cells. Any bias should be a consequence of the “education” of the dendritic cells. After three days of incubation the cytokine responses produced by the T cells, were measured by ELISA. […] In contrast, nematode antigen incubation gave rise to more IL-4 (Th2) than did controls while the LPS incubation inhibited the IL4 response. Therefore, the nematode antigen was said to drive cells to DC2. A similar method was used for testing the compounds of the present invention: • 1. Bone marrow cells were extracted from the leg bones of DO.11.10 mice transgenic for the TcR. All cells from these mice respond to the OVA peptide ([…]). • 2. Bone marrow cells were plated at 10^6 cells/ml in 100 mm diameter tissue culture petri dishes in Iscove's medium supplemented with 10% FCS, […], 1 mM sodium pyruvate, penicillin/streptomycin (according to manufacturer's recommendations), non-essential amino acids, 50 μM β-mercaptoethanol and 10 ng/ml mGM-CSF. • 3. After 4 days, the medium was carefully removed and replaced with fresh medium • 4. After 6 days, the non-adherent cells were harvested and used as immature dendritic cells • 5. The immature dendritic cells are plated at 1×10^6 cells/ml, 1 ml/well in 24 well plates in the above medium with various reagents added at various concentrations and incubated overnight. This is the stage in which the dendritic cells are “educated” • 6. The next day the cells were harvested and washed 3 times then resuspended at 5×10^4 cells/ml in 1 ml of the above medium but without the addition of GM-CSF to be cocultured with T cells • 7. […] 5×10^5 T cells were cultured with the dendritic cells from step 6 in the presence of various concentrations of the OVA peptide (0, 0.3 nM, 3 nM and 30 nM). • 9. After 3 days PMA (50 ng/ml) and ionomycin (500 ng/ml) were added to further stimulate the cells. • 10. The next day the cell supernatants were collected and assayed for cytokine content (Interferon γ, IL4, IL-10 and IL-12).
The compound was tested for stimulation of DO.11.10 bone marrow cells according to the assay described above (Production and education of mouse dendritic cells and stimulation of T-cells).
BALB/c DO.11.10 bone marrow cells were cultured for dendritic cells and then stimulated with LPS 1 μg/ml, LPS 10 μg/ml, hsp60 3 μg/ml, hsp60 10 μg/ml, p277 5 μg/ml and p277 50 μg/ml. The cells were then transferred to wells with T cells from fresh BALB/c DO.11.10 mice and stimulated with OVA peptide at different concentrations (0, 0.3 nM, 3 nM, 30 nM). Supernatant was collected after 48 hours for assay. 30 μl was taken for IFN, 40 μl for IL4 and IL-10 and 50 μl for IL-12 assays. The results are presented in the following tables, as amount of cytokine (pg/ml), and in FIG. 1.

[2] = tested on: peripheral blood mononuclear cells cultured with GM-CSF and IL4 (dendritic cells); assay: Peripheral blood derived dendritic cells: secreted cytokines (IP-10, IL-8) and cell surface antigens (CD83, CD86); format: cell-based, human; settings: overnight
Procedure: The effect of the compositions of the present invention on peripheral blood derived dendritic cells, was tested according to a protocol described by Re, F. and Strominger, J. L. 2001. Toll-like receptor 2 (Tlr2) and Tlr4 differentially activate human dendritic cells. (J Biol Chem 276: 37692-9). According to this method immature dendritic cells derived from human peripheral blood are used. The outcome after incubating the cells with tested molecules is different if the stimulation is through the Toll 4 receptor or the Toll 2 receptor. According to the authors, Toll 2 signaling by stimulation with zymosan is associated with a Th2 kind of response (exemplified by IL-8) and Toll 4 signaling, such as obtained by LPS stimulation (exemplified by IP-10), with a Th1 type of response. The compositions of the present invention were tested using a similar assay system in order to check which stimulation type they induce. […] The increase in CD86 expression after exposure of APCs to Hsps or Hsp derived peptides is important since CD86 (B7.2) is an essential component of the immunological synapse formed between T cells and APC. This synapse consists of CD80 and CD86 on the side of the APC and CD28 and CD40 on the side of the T cell. T cell recognition of peptide on APC without the concurrent expression of CD86 gives rise to anergy instead of a T cell response. Therefore in order to produce a response all components must be present.
The assay was based on the protocol described by Re, F. and Strominger, J. L. 2001. Toll-like receptor 2 (Tlr2) and Tlr4 differentially activate human dendritic cells. (J. Biol Chem 276: 37692-9).
Peripheral blood mononuclear cells were prepared from leucocytes from blood lots obtained from the blood bank. The cells were plated at 10^8 cells/10 ml/Petri dish in RPMI medium including 10% FCS and allowed to adhere at 37° C. for 2 hours. At the end of this time, the non-adherent cells were washed off the plates with PBS and the adherent cells resuspended in fresh medium as before. […]

[3] = tested on: peripheral blood monocytes; assay: Peripheral blood monocytes: IP-10 after direct stimulation or preincubation then LPS; format: cell-based, human; settings: peripheral blood monocytes, no preincubation, FIG. 4
Procedure: Peripheral blood mononuclear cells were prepared from leucocytes of blood lots obtained from the blood bank. The cells were plated at a concentration of 4×10^6 cell/ml/well in 24 well tissue culture dishes in medium containing 10% fetal calf serum. The cells were allowed to adhere for 2 hours at 37° C. After this time, non-adherent cells were washed away and the adherent cells incubated in fresh medium containing 10% human AB serum for 6-8 days, changing the medium after 4 days. These culture conditions were reported to give rise to monocytes.
For stimulation the medium was replaced with medium without serum. For preincubation, the cells were exposed overnight to the tested compounds at various concentrations and then LPS was added. The supernatant was collected after a further overnight incubation and tested for various cytokines by ELISA assays.

[4] = dendritic cells educated with 3 μg/ml
[5] = dendritic cells educated with 10 μg/ml

B1: hsp60: heat shock protein 60, mitochondrial chaperone, used as stimulus (protein)
chain: MLRLPTVFRQMRPVSRVLAPHLTRAYAKDVKFGADARALMLQGVDLLADAVAVTMGPKGRTVIIEQGWGSPKVTKDGVTVAKSIDLKDKYKNIGAKLVQDVANNTNEEAGDGTTTATVLARSIAKEGFEKISKGANPVEIRRGVMLAVDAVIAELKKQSKPVTTPEEIAQVATISANGDKEIGNIISDAMKKVGRKGVITVKDGKTLNDELEIIEGMKFDRGYISPYFINTSKGQKCEFQDAYVLLSEKKISSIQSIVPALEIANAHRKPLVIIAEDVDGEALSTLVLNRLKVGLQVVAVKAPGFGDNRKNQLKDMAIATGGAVFGEEGLTLNLEDVQPHDLGKVGEVIVTKDDAMLLKGKGDKAQIEKRIQEIIEQLDVTTSEYEKEKLNERLAKLSDGVAVLKVGGTSDVEVNEKKDRVTDALNATRAAVEEGIVLGGGCALLRCIPALDSLTPANEDQKIGIEIIKRTLKIPAMTIAKNAGVEGSLIVEKIMQSSSEVGYDAMAGDFVNMVEKGIIDPTKVVRTALLDAAGVASLLTTAEVVVTEIPKEEKDPGMGAMGGMGGGMGGGMF
modifications: Homo sapien
notes: heat shock protein 60, mitochondrial chaperone, used as stimulus
- IFN secretion of T cells [1, 4]: 447.78 pg/mL
- IL-4 secretion of T cells [1, 4]: 35.96 pg/mL
- IL-10 secretion of T cells [1, 4]: 34.50 pg/mL
- IL-12 secretion of T cells [1, 4]: 95.00 pg/mL
- IFN secretion of T cells [1, 5]: 480.56 pg/mL
- IL-4 secretion of T cells [1, 5]: 24.29 pg/mL
- IL-10 secretion of T cells [1, 5]: 80.18 pg/mL
- IL-12 secretion of T cells [1, 5]: 126.25 pg/mL
- IP-10 ([2]; stimulus 10 ng/ml): 6 pg/mL
- IP-10 ([2]; stimulus 0.1 μg/ml): 1 pg/mL
- IP-10 ([2]; stimulus 1 μg/ml): 31 pg/mL
- IP-10 after direct stimulation [3]: did not give rise to IP-10
